What is called EC50 is the midpoint of the concentration-response curve. Higher therefore signals a need for much substance.

Assay [1] deals with T cell receptor of 2C cytotoxic T lymphocytes. Nature of the assay: flow cytometry on 2C T cells, varying concentrations of complex. A general note: In flow cytometry, cells or beads pass a laser one at a time.
For assay [2] the target is unchanged. Nature of the assay: cell-based or functional assay.
Assay [3] has the same target. Nature of the assay: flow cytometry on 2C T cells, actively loaded complex, half maximal staining.
Assay [4] shares this target. Nature of the assay: flow cytometry on 2C T cells, passively loaded complex.
For assay [5] the target is unchanged. Nature of the assay: flow cytometry on 2C T cells, actively against passively loaded complex.
Assay [6] shares this target. Nature of the assay: flow cytometry on 2C T cells, actively loaded complex at 0.1 nM.
Assay [7] has the same target. Nature of the assay: flow cytometry on 2C T cells, actively loaded complex.
For assay [8] the target is unchanged. Nature of the assay: flow cytometry on 2C T cells, passively loaded complex, half maximal staining.

Sequence of QL9 peptide-loaded H-2 L^d/Ig complex (P01897 25-309, one chain of several): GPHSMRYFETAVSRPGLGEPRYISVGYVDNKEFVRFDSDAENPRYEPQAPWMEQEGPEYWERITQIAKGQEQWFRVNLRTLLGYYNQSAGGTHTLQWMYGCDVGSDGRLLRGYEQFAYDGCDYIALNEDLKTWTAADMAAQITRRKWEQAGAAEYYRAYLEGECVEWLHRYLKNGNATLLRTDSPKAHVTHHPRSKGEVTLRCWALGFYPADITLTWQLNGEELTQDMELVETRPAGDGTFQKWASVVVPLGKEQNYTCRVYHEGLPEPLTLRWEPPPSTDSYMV
Sequence of SIY peptide-loaded H-2 K^b/Ig complex (P01901 22-305, one chain of several): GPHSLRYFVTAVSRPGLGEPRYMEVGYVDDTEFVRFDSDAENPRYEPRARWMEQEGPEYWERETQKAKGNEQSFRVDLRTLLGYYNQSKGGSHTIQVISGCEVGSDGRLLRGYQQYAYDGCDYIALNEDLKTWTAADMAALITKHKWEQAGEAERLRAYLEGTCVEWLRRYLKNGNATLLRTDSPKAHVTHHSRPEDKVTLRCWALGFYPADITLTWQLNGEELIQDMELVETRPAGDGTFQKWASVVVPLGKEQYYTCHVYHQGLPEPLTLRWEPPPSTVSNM

Consider “QL9 peptide-loaded H-2 L^d/Ig complex (from UniProt P01897 25-309) (peptide-MHC)”, for which, in assay [1], the EC50 came out at 1 nM. Besides, in assay [2], the half maximal inhibition of target cell lysis by 2C CTL is 10 nM and the target cell lysis by 2C CTL (percent specific lysis, chromium release) amounted to 2%.

As to “SIY peptide-loaded H-2 K^b/Ig complex (from UniProt P01901 22-305) (peptide-MHC)”, the EC50 in assay [1] was determined as 1 nM. Further, the EC50 in assay [3] stood at 1 nM. This substance also registered a concentration required for staining in assay [4] of 10 nM. The fold more effective in staining than the “passively” loaded complex in assay [5] lay in the range of 10 to 100 fold. For the same substance, in assay [2], the 2C CTL mediated lysis of target cells (specific lysis) was 35%, the concentration of maximal inhibition of proliferation of 2C CTL stimulated by allogeneic splenic cells turned out to be 20 nM, the half maximal inhibition of proliferation of 2C CTL turned out to be 1 nM and the stimulation index of 2C CTL proliferation ([3H]thymidine) is 10. This substance had a mean channel fluorescence (MCF) at 0.1 nM in assay [6] of 53. In assay [7], the lowest concentration at which staining was seen is 0.1 nM. Besides, the EC50 in assay [8] amounted to 10 nM.

For the origin of these results see patent US20020006903A1.
